Test results from patent publication US20260258113.

Target: alpha globin, endogenous, in perfused human omental arteries, P69905
Sequence (P69905 2-142): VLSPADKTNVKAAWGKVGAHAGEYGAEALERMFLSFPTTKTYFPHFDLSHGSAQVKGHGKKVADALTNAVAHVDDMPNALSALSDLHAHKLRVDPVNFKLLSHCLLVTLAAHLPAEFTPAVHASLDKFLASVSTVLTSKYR

B1: endothelial nitric oxide synthase (eNOS), endogenous, in human resistance arteries (protein)
chain: GNLKSVAQEPGPPCGLGLGLGLGLCGKQGPATPAPEPSRAPASLLPPAPEHSPPSSPLTQPPEGPKFPRVKNWEVGSITYDTLSAQAQQDGPCTPRRCLGSLVFPRKLQGRPSPGPPAPEQLLSQARDFINQYYSSIKRSGSQAHEQRLQEVEAEVAATGTYQLRESELVFGAKQAWRNAPRCVGRIQWGKLQVFDARDCRSAQEMFTYICNHIKYATNRGNLRSAITVFPQRCPGRGDFRIWNSQLVRYAGYRQQDGSVRGDPANVEITELCIQHGWTPGNGRFDVLPLLLQAPDDPPELFLLPPELVLEVPLEHPTLEWFAALGLRWYALPAVSNMLLEIGGLEFPAAPFSGWYMSTEIGTRNLCDPHRYNILEDVAVCMDLDTRTTSSLWKDKAAVEINVAVLHSYQLAKVTIVDHHAATASFMKHLENEQKARGGCPADWAWIVPPISGSLTPVFHQEMVNYFLSPAFRYQPDPWKGSAAKGTGITRKKTFKEVANAVKISASLMGTVMAKRVKATILYGSETGRAQSYAQQLGRLFRKAFDPRVLCMDEYDVVSLEHETLVLVVTSTFGNGDPPENGESFAAALMEMSGPYNSSPRPEQHKSYKIRFNSISCSDPLVSSWRRKRKESSNTDSAGALGTLRFCVFGLGSRAYPHFCAFARAVDTRLEELGGERLLQLGQGDELCGQEEAFRGWAQAAFQAACETFCVGEDAKAAARDIFSPKRSWKRQRYRLSAQAEGLQLLPGLIHVHRRKMFQATIRSVENLQSSKSTRATILVRLDTGGQEGLQYQPGDHIGVCPPNRPGLVEALLSRVEDPPAPTEPVAVEQLEKGSPGGPPPGWVRDPRLPPCTLRQALTFFLDITSPPSPQLLRLLSTLAEEPREQQELEALSQDPRRYEEWKWFRCPTLLEVLEQFPSVALPAPLLLTQLPLLQPRYYSVSSAPSTHPGEIHLTVAVLAYRTQDGLGPLHYGVCSTWLSQLKPGDPVPCFIRGAPSFRLPPDPSLPCILVGPGTGIAPFRGFWQERLHDIESKGLQPTPMTLVFGCRCSQLDHLYRDEVQNAQQRGVFGRVLTAFSREPDNPKTYVQDILRTELAAEVHRVLCLERGHMFVCGDVTMATNVLQTVQRILATEGDMELDEAGDVIGVLRDQQRYHEDIFGLTLRTQEVTSRIRTQSFSLQERQLRGAVPWAFDPPGSDTNSP
ROI average fluorescence lifetime after co-labelling with the alpha globin and eNOS antibodies (FLIM, FRET-like shift): the eNOS + HBA ROIs lie at about 2.9 to 3.6 ns, below HBA alone (about 3.6 to 4.2 ns) and eNOS alone (about 3.8 to 4.15 ns); p<0.0001 printed for both comparisons
fluorescence lifetime histogram after co-labelling with the alpha globin and eNOS antibodies (FLIM, FRET-like shift): the co-labelled curve d (HBA + eNOS) peaks at about 3.95 ns, left of HBA only (b, about 4.2 ns), eNOS only (c, about 4.25 ns) and unstained (a, about 4.35 ns)
